Our source for the mean level of VWF:FVIII relative to untreated donor-matched plasma values is patent WO2025037032A1.

Bounds are passed on as bounds.

The test concerns the target coagulation Factor VIII (human) (UniProt P00451). Kind of test: VWF:FVIIIB enzyme immunoassay; VWF of human plasma captured with rabbit anti-human VWF F(ab')2, bound FVIII detected; plasma pre-incubated 17 h at 37°C with 200 or 600 nM one-arm anti-VWF CK domain antibodies.
Chain of UniProt P00451 (P00451 20-2351): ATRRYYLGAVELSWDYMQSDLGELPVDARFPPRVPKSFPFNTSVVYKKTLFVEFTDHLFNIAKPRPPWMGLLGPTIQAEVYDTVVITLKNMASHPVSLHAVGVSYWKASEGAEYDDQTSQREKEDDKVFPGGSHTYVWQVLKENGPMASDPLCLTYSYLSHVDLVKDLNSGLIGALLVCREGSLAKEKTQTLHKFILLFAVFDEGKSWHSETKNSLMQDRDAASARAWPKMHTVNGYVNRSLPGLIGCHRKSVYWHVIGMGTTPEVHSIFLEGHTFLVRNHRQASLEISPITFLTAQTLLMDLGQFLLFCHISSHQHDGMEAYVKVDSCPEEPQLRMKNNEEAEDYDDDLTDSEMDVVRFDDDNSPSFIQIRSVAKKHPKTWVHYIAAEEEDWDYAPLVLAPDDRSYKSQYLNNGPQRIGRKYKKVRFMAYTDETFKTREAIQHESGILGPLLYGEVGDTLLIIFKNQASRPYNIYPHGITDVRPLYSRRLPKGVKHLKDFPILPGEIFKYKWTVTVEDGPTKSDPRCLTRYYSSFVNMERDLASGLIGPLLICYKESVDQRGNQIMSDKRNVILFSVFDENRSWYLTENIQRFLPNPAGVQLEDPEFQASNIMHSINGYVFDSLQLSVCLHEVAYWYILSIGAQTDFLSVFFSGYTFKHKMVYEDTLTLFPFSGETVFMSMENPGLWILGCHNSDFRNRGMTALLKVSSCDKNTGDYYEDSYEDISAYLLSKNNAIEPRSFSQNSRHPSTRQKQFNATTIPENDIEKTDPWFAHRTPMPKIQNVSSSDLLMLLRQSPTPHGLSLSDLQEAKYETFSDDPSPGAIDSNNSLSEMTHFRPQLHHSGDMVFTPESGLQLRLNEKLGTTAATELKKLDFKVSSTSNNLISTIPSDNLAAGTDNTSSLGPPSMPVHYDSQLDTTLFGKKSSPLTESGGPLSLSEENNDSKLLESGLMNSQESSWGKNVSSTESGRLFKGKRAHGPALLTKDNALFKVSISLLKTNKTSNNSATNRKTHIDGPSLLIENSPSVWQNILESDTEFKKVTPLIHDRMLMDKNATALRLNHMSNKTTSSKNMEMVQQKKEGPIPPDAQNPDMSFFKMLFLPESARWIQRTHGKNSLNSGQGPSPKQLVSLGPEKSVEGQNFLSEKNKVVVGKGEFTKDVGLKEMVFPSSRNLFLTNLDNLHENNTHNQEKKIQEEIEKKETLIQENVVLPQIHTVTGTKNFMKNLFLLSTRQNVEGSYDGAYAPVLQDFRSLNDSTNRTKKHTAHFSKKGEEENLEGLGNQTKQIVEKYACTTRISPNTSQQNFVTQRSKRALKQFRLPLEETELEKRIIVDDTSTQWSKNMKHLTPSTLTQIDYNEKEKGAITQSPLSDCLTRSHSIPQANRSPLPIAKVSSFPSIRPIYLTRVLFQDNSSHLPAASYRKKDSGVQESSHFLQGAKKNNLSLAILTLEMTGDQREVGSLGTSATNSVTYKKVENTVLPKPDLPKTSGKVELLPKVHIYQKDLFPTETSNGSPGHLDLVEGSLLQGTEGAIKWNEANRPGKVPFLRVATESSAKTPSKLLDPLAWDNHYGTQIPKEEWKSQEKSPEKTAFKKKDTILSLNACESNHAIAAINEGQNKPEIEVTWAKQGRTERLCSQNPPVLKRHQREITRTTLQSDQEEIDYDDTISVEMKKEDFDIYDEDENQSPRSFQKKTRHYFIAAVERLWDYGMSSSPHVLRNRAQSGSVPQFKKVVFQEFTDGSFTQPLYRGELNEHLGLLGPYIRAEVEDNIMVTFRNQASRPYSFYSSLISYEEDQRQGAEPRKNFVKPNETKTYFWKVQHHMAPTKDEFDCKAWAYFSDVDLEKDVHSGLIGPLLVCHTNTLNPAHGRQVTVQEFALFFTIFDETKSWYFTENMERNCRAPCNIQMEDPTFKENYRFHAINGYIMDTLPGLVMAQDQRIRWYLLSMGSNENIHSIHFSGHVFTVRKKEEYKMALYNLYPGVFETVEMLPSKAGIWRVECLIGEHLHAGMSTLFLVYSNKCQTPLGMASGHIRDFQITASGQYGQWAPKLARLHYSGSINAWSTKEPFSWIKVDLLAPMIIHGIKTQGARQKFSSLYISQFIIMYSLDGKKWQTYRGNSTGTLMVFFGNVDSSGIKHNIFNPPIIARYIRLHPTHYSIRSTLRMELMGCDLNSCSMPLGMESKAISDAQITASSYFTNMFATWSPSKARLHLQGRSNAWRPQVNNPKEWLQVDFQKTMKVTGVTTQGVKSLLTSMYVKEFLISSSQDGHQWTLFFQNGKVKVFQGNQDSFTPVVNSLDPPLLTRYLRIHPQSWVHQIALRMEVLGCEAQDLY

For the substance “human plasma-derived VWF (from UniProt P04275 764-2813)”, the mean level of VWF:FVIII relative to untreated donor-matched plasma was above 80%.
